Residue numbers refer to the chain shown, from its start.
Assays:
[1] = molecular target: T1, ヒト組織因子(TF)(ヒト膀胱癌細胞J82上に発現) (human, UniProt P13726 33-295); experiment: cell ELISA on fixed J82 cells
T1 construct: whole, on cells; Target of the cell ELISA; also called ヒトTF; 抗原

[2] = molecular target: T2, 可溶型ヒトTF(アミノ酸配列1-219のC末端にFLAGペプチドを連結、CHO細胞発現) (human, UniProt P13726 33-251); experiment: dot blot of shTF on nitrocellulose: native, 8 M urea-denatured, and 8 M urea + 5 mM DTT
T2 construct: also called shTF; 可溶型TF

[3] = molecular target: T1, ヒト組織因子(TF)(ヒト膀胱癌細胞J82上に発現); experiment: cell ELISA on fixed J82 cells; chimeric antibody as the reference

B1: H鎖ヒト型化バージョンa/L鎖キメラ抗体 (antibody, V domains shown)
VH: QVQLLESGAVLARPGTSVKISCKASGFNIKDYYMHWVKQRPGQGLEWIGGNDPANGHSMYDPKFQGRAKLTAATSASIAYLEFSSLTNEDSAVYYCARDSGYAMDYWGQGTLVTVSS
VL: DIKMTQSPSSMYASLGERVTITCKASQDIKSFLSWYQQKPWKSPKTLIYYATSLADGVPSRFSGSGSGQDYSLTINNLESDDTATYYCLQHGESPYTFGGGTKLEIK
notes: Human IgG4 kappa (vector N5KG4P); also called a-ch
B1: binds [1].

B2: H鎖キメラ/L鎖ヒト型化バージョンb抗体 (antibody, V domains shown)
VH: EVQLQQSGTNLVRPGALVKLSCKGSGFNIKDYYMHWVKQRPEQGLEWIGGNDPANGHSMYDPKFQGKASITADTSSNTAYLQLSSLTSEDTAVYFCARDSGYAMDYWGQGTSVTVSS
VL: DIQMTQSPSSLSASVGDRVTITCKASQDIKSFLSWYQQKPGKAPKLLIYYATSLADGVPSRFSGSGSGTDYTLTISSLQPEDFATYYCLQHGESPYTFGGGTKVEIK
notes: Human IgG4 kappa (vector N5KG4P); also called ch-b
B2: binds [1].

B3: H鎖キメラ/L鎖ヒト型化バージョンa抗体 (antibody, V domains shown)
VH: B2 VH
VL: B2 VL with Y71F
notes: Human IgG4 kappa (vector N5KG4P); also called ch-a
B3: binds [1].

B4: H鎖キメラ/L鎖ヒト型化バージョンb1抗体 (antibody, V domains shown)
VH: B2 VH
VL: B2 VL with Y36F, A43S, L46T
notes: Human IgG4 kappa (vector N5KG4P); also called ch-b1
B4: binds [1].

B5: H鎖キメラ/L鎖ヒト型化バージョンb2抗体 (antibody, V domains shown)
VH: B2 VH
VL: B2 VL with G41E, L46S
notes: Human IgG4 kappa (vector N5KG4P); also called ch-b2
B5: binds [1].

B6: H鎖キメラ/L鎖ヒト型化バージョンc抗体 (antibody, V domains shown)
VH: B2 VH
VL: B2 VL with F83I
notes: Human IgG4 kappa (vector N5KG4P); also called ch-c
B6: binds [1].

B7: H鎖ヒト型化バージョンb/L鎖ヒト型化バージョンb抗体 (antibody, V domains shown)
VH: QVQLLESGAVLARPGTSVKISCKASGFNIKDYYMHWVKQRPGQGLEWIGGNDPANGHSMYDPKFQGRVTITADTSTNTAYMELSSLRSEDTAIYYCARDSGYAMDYWGQGTLVTVSS
VL: B2 VL
notes: Human IgG4 kappa (vector N5KG4P); also called b-b; bb
B7: binds [2]; binds [1].

B8: H鎖ヒト型化バージョンb3/L鎖ヒト型化バージョンb抗体 (antibody, V domains shown)
VH: B7 VH with K38R, R40A
VL: B2 VL
notes: Human IgG4 kappa (vector N5KG4P); also called b3-b
B8: binds [1].

B9: H鎖ヒト型化バージョンb/L鎖ヒト型化バージョンa抗体 (antibody, V domains shown)
VH: B7 VH
VL: B2 VL with Y71F
notes: Human IgG4 kappa (vector N5KG4P); also called b-a
B9: binds [1].

B10: H鎖ヒト型化バージョンb/L鎖ヒト型化バージョンb2抗体 (antibody, V domains shown)
VH: B7 VH
VL: B2 VL with G41E, L46S
notes: Human IgG4 kappa (vector N5KG4P); also called b-b2
B10: binds [1].

B11: H鎖ヒト型化バージョンb/L鎖ヒト型化バージョンc抗体 (antibody, V domains shown)
VH: B7 VH
VL: B2 VL with F83I
notes: the construction of its expression plasmid is not described; also called b-c
B11: binds [1].

B12: H鎖ヒト型化バージョンd3/L鎖ヒト型化バージョンb抗体 (antibody, V domains shown)
VH: B7 VH with K38R, R40A, T74E, N77S, T91S, I93V, Y95F
VL: B2 VL
notes: Human IgG4 kappa (vector N5KG4P); also called d3-b
B12: binds [1].

B13: H鎖ヒト型化バージョンd/L鎖ヒト型化バージョンb抗体 (antibody, V domains shown)
VH: B7 VH with T74E, N77S, T91S, I93V, Y95F
VL: B2 VL
notes: Human IgG4 kappa (vector N5KG4P); also called d-b
B13: binds [1].

B14: H鎖ヒト型化バージョンg/L鎖ヒト型化バージョンb抗体 (antibody, V domains shown)
VH: B7 VH with R67K, V68A, I70L, T74E, T76S, N77S, E82Q, T91S, I93V, Y95S
VL: B2 VL
notes: Human IgG4 kappa (vector N5KG4P); also called g-b
B14: binds [1].

B15: H鎖ヒト型化バージョンi/L鎖ヒト型化バージョンb1抗体 (antibody, V domains shown)
VH: B7 VH with N77S, A79V, Y80F, I93V
VL: B2 VL with Y36F, A43S, L46T
notes: Human IgG4 kappa (vector N5KG4P); also called i-b1
B15: binds [1].

B16: H鎖ヒト型化バージョンi/L鎖ヒト型化バージョンb2抗体 (antibody, V domains shown)
VH: QVQLLESGAVLARPGTSVKISCKASGFNIKDYYMHWVKQRPGQGLEWIGGNDPANGHSMYDPKFQGRVTITADTSTSTVFMELSSLRSEDTAVYYCARDSGYAMDYWGQGTLVTVSSAS
VL: B2 VL with G41E, L46S
notes: Human IgG4 kappa (vector N5KG4P); also called i-b2; ib2
B16: binds [2]; binds [1].

B17: H鎖ヒト型化バージョンj/L鎖ヒト型化バージョンb抗体 (antibody, V domains shown)
VH: B7 VH with I70F, T76A, S84R, E89A, I93V
VL: B2 VL
notes: Human IgG4 kappa (vector N5KG4P); also called j-b
B17: binds [1].

B18: H鎖ヒト型化バージョンb/L鎖キメラ抗体 (antibody, V domains shown)
VH: B7 VH
VL: B1 VL
notes: Human IgG4 kappa (vector N5KG4P); also called b-ch
B18: binds [1].

B19: H鎖ヒト型化バージョンd/L鎖キメラ抗体 (antibody, V domains shown)
VH: B7 VH with T74E, N77S, T91S, I93V, Y95F
VL: B1 VL
notes: Human IgG4 kappa (vector N5KG4P); also called d-ch
B19: binds [1].

B20: H鎖ヒト型化バージョンe/L鎖キメラ抗体 (antibody, V domains shown)
VH: B7 VH with T69S, T74E, N77K, T78I, S84N, I93V, Y95F
VL: B1 VL
notes: Human IgG4 kappa (vector N5KG4P); also called e-ch
B20: binds [1].

B21: H鎖ヒト型化バージョンi/L鎖キメラ抗体 (antibody, V domains shown)
VH: B7 VH with N77S, A79V, Y80F, I93V
VL: B1 VL
notes: Human IgG4 kappa (vector N5KG4P); also called i-ch
B21: binds [1].

B22: H鎖ヒト型化バージョンj/L鎖キメラ抗体 (antibody, V domains shown)
VH: B7 VH with I70F, T76A, S84R, E89A, I93V
VL: B1 VL
notes: Human IgG4 kappa (vector N5KG4P); also called j-ch
B22: binds [1].

B23: H鎖ヒト型化バージョンi/L鎖ヒト型化バージョンb抗体 (antibody, V domains shown)
VH: B7 VH with N77S, A79V, Y80F, I93V
VL: B2 VL
notes: Human IgG4 kappa (vector N5KG4P); also called i-b; ib
B23: binds [2]; binds [1].

B24: H鎖キメラ/L鎖キメラ抗体(キメラATR-5抗体) (antibody, V domains shown)
VH: B2 VH
VL: B1 VL
notes: Mouse ATR-5 V regions joined to human C regions; Both an IgG1 (N5KG1(V)) and an IgG4 (N5KG4P) kappa vector were built; also called ch-ch; chATR-5
B24: binds [2]; binds [3].

B25: H鎖ヒト型化バージョンa/L鎖ヒト型化バージョンa抗体 (antibody, V domains shown)
VH: B1 VH
VL: B2 VL with Y71F
notes: Human IgG4 kappa (vector N5KG4P); also called a-a
B25: binds [1].

B26: H鎖ヒト型化バージョンc/L鎖キメラ抗体 (antibody, V domains shown)
VH: QVQLLESGAVLARPGTSVKISCKASGFNIKDYYMHWVKQRPGQGLEWIGGNDPANGHSMYDPKFQGRVTMLVDTSKNQFSLRLSSVTAADTAVYYCARDSGYAMDYWGQGTLVTVSS
VL: B1 VL
notes: Human IgG4 kappa (vector N5KG4P); also called c-ch
B26: binds [1].
